The values that follow come from patent US20240059785A1 (QILU PUGET SOUND BIOTHERAPEUTICS, published 2024).

Test [1] concerns the target T1, cynomolgus monkey CD37 (Macaca fasicularis CD37) (cynomolgus monkey (Macaca fasicularis …, UniProt P11049 1-281 (human entry))).
T1 construct: On CD20+ or CD19+ B cells in cynomolgus monkey PBMCs; also called cynoCD37
T1 chain: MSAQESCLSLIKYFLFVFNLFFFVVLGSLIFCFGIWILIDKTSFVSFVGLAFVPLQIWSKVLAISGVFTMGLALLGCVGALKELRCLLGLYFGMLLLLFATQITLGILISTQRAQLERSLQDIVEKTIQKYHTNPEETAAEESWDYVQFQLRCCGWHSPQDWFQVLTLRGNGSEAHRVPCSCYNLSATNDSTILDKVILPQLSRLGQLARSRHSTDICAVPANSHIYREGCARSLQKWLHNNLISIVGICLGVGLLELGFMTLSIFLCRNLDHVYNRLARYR
Description: FACS, APC-labelled antibody on CD19+ B cells of cynomolgus monkey PBMCs. (In flow cytometry, cells or beads pass a laser one at a time.)

For test [2], the target named is T1, cynomolgus monkey CD37 (Macaca …). Description: FACS, ratio of EC50 on cynomolgus monkey B cells to EC50 on human B cells.
Test [3] concerns the target T2, human CD37 (Homo sapiens CD37) (Homo sapiens, UniProt P11049 1-281).
T2 construct: Multi-pass cell surface antigen; present on Raji, Ramos, WSU-DLCL2 cells, human B cells, or on stably transfected CHO cells (CD37/CHO); also called hCD37
T2 sequence: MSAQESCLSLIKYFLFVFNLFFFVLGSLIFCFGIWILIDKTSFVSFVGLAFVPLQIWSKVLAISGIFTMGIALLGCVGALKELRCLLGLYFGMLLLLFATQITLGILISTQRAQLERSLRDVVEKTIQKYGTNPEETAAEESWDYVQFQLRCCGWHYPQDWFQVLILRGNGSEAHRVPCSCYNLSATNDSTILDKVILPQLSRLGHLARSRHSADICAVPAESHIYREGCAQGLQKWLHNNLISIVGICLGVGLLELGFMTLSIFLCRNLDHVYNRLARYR
Description: FACS, APC-labelled antibody on CD19+ B cells of human PBMCs.

Test [4] concerns the target T2, human CD37 (Homo sapiens CD37). Description: FACS on CHO cells stably expressing hCD37 (CD37/CHO), EC50 of Geo MFI.
Test [5] deals with T3, human CD20 (Homo sapiens CD20) (Homo sapiens, UniProt P11836 1-297).
T3 construct: Multi-pass cell surface antigen; present on Raji, Ramos, WSU-DLCL2 cells, human CD19+ B cells, or on stably transfected CHO cells (CD20/CHO); also called hCD20
T3 sequence: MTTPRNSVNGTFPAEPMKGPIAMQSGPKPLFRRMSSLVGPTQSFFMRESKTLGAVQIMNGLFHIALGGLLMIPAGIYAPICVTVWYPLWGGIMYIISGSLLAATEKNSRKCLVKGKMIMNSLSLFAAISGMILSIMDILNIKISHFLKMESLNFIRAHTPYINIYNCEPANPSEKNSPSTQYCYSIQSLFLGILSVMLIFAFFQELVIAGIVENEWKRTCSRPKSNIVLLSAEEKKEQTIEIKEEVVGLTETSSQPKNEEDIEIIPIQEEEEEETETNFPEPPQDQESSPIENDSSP
Description: FACS on CHO cells stably expressing hCD20 (CD20/CHO).

In test [6] the target is T3, human CD20 (Homo sapiens CD20). Description: FACS on Raji cells, titration.
Test [7] shares this target. Description: FACS on Raji cells, crude transfection supernatant.
For test [8] the target is unchanged. Description: FACS on WSU-DLCL2, Raji and Ramos cells, 10 µg/mL.
Test [9] has as its target T2, human CD37 (Homo sapiens CD37). Description: FACS on WSU-DLCL2, Raji and Ramos cells, 10 µg/mL.
Test [10] has as its target T1, cynomolgus monkey CD37 (Macaca …). Description: FACS on CD20+ gated cynomolgus monkey PBMCs.
Test [11] shares this target. Description: FACS on CD20+ gated cynomolgus monkey PBMCs, compared with anti-hCD37 Ab1.

B1: anti-hCD37 Ab1.A1 (antibody, human IgG1, kappa)
heavy: not shown
light: DIQMTQSPSSLSASVGDRVTITCRTSENVYNYLAWYQQKPGKAPKLLIYFAKTLAEGVPSRFSGSGSGTQFTLTISSLQPEDSASYYCQHHSDNPWTFGGGTELEIKRTVAAPSVFIFPPSDEQLKSGTASVVCLLNNFYPREAKVQWKVDNALQSGNSQESVTEQDSKDSTYSLSSTLTLSKADYEKHKVYACEVTHQGLSSPVTKSFNRGEC
notes: anti-hCD37 Ab1 with VH-M34V + VL-S31N; also called anti-CD37 Ab1.A1
Usually EC50 stands for the concentration at which the effect is half-maximal. With B1, the EC50 in test [1] was 254 nM; in [3], 4.05 nM. Besides, in [2], the “fold less potent than its binding of human B cells” value was 62.7 fold.

B2: anti-hCD37 Ab1.A1.1 (antibody)
heavy: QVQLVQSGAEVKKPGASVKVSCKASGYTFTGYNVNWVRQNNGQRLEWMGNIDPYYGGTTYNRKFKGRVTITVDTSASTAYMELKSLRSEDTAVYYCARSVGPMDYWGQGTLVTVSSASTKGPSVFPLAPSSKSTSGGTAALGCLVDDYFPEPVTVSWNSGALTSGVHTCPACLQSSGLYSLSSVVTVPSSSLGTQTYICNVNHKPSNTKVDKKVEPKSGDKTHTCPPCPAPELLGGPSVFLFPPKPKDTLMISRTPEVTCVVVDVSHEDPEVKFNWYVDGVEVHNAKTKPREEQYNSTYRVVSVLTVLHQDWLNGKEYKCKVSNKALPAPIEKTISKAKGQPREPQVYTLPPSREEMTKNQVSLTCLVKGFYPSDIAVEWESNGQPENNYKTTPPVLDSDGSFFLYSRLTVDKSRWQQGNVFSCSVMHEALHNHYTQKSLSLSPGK
light: DIQMTQSPSSLSASVGDRVTITCRTSENVYNYLAWYQQKPGKAPKLLIYFAKTLAEGVPSRFSGSGSGTQFTLTISSLQPEDSASYYCQHHSDNPWTFGGGTELEIKRTVAAPSVFIFPPSDEQLKSGTAKVVCLLNNFYPREAKVQWKVDNALQSGNSCECVTEQDSKDSTYSLSSTLTLSKADYEKHKVYACEVTHQGLSSPVTKSFNRGES
notes: Ab1.A1 with HC K147D, F170C, V173C, C220G, K409R and LC S131K, Q160C, S162C, C214S; also called α-CD37 Ab1.A1.1
Turning to B2, in test [4], the EC50 was 1.33 nM. Besides, in test [5], the binding result is listed as “no binding (tested: about 0.0002 nM to about 30 nM)”.

B3: rituximab (antibody, V domains shown)
VH: QVQLQQPGAELVKPGASVKMSCKASGYTFTSYNMHWVKQTPGRGLEWIGAIYPGNGDTSYNQKFKGKATLTADKSSSTAYMQLSSLTSEDSAVYYCARSTYYGGDWYFNVWGAGTTVTVSA
VL: QIVLSQSPAILSASPGEKVTMTCRASSSVSYIHWFQQKPGSSPKPWIYATSNLASGVPVRFSGSGSGTSYSLTISRVEAEDAATYYCQQWTSNPPTFGGGTKLEIK
As to B3, the EC50 in [6] came out at 18.2 nM.

B4: anti-hCD20 Ab1-T6 (antibody, human IgG1, kappa, name in Kabat numbering, V domains shown)
VH: QVQLVQSGAEVKKPGSSVKVSCKASGYTFTSYNMHWVRQAPGQGLEWMGRIYPGNGDTSYNQKFQGRVTLTVDKSSSTAYMELSSLRSEDTAVYFCARVVYYSNSYWYFDVWGTGTMVTVSS
VL: EIVLTQSPDFQSVTPKEKVTITCRASSSVSYMHWYQQKPDQSPKPLIYAPSNLASGVPSRFSGSGSGTDYTLTINSLEAEDAATYYCQQWSFNPPTFGAGTKLEIKR
notes: IgG1; also called variant #3
For the molecule B4, the binding result in test [7] is on record as “binds”.

B5: anti-hCD20 Ab1-T7 (antibody, human IgG1, kappa, name in Kabat numbering, V domains shown)
VH: QVQLVQSGAEVKKPGSSVKVSCKASGYTFTSYNMHWVRQAPGQGLEWMGAIYPGEGDTSYNQKFQGRVTLTVDKSSSTAYMELSSLRSEDTAVYFCARVVYYSNSYWYFDVWGTGTMVTVSS
VL: EIVLTQSPDFQSVTPKEKVTITCRASSSVSYMHWYQQKPDQSPKPLIYAPSNLASGVPSRFSGSGSGTDYTLTINSLEAEDAATYYCQQWSFNPPTFGAGTKLEIKR
notes: IgG1; also called variant #7
As for B5, the binding result in [8] is “binds”.

B6: anti-hCD20 Ab1-T8 (antibody, human IgG1, kappa, name in Kabat numbering, V domains shown)
VH: QVQLVQSGAEVKKPGSSVKVSCKASGYTFTSYNMHWVRQAPGQGLEWMGAIYPGNGDTDYNQKFQGRVTLTVDKSSSTAYMELSSLRSEDTAVYFCARVVYYSNSYWYFDVWGTGTMVTVSS
VL: EIVLTQSPDFQSVTPKEKVTITCRASSSVSYMHWYQQKPDQSPKPLIYAPSNLASGVPSRFSGSGSGTDYTLTINSLEAEDAATYYCQQWSFNPPTFGAGTKLEIKR
notes: IgG1; also called variant #8
With B6, in test [7], the binding result was “binds”.

B7: anti-hCD20 Ab1.2.2 (antibody, human IgG4 S228P, kappa)
heavy: QVQLVQSGAEVKKPGSSVKVSCKASGYTFTSYNMHWVRQAPGQGLEWMGAIYPGNGDTSYNQKFQGRVTLTVDKSSSTAYMELSSLRSEDTAVYFCARVVYYSNSYWYFDVWGTGTMVTVSSASTKGPSVFPLAPCSRSTSESTAALGCLVKDYFPEPVTVSWNSGALTSGVHTFPAVLQSSGLYSLSSVVTVPSSSLGTKTYTCNVDHKPSNTKVDKRVESKYGPPCPPCPAPELLGGPDVFLFPPKPKDTLMISRTPEVTCVVVDVSHEDPEVKFNWYVDGVEVHNAKTKPREEQYNATYRVVSVLTVLHQDWLNGKEYKCKVSNKALPAPIEKTISKAKGQPREPQVYTLPPSREMTKNQVSLTCLVKGFYPSDIAVEWESNGQPENNYKTTPPVLDSDGSFFLYSKLTVDKSRWQQGNVFSCSVMHEALHNHYTQKSLSLSPGK
light: EIVLTQSPDFQSVTPKEKVTITCRASSSVSYMHWYQQKPDQSPKPLIYAPSNLASGVPSRFSGSGSGTDYTLTINSLEAEDAATYYCQQWSFNPPTFGAGTKLEIKRTVAAPSVFIFPPSDEQLKSGTASVVCLLNNFYPREAKVQWKVDNALQSGNSQESVTEQDSKDSTYSLSSTLTLSKADYEKHKVYACEVTHQGLSSPVTKSFNRGEC
notes: Ab1.2 with S239D, S298A
Take B7: it took 26.3 nM to reach a half-maximal effect in test [6] (EC50).

B8: anti-hCD37 Ab1 (antibody, human IgG1, kappa, V domains shown)
VH: QVQLVQSGAEVKKPGASVKVSCKASGYTFTGYNMNWVRQNNGQRLEWMGNIDPYYGGTTYNRKFKGRVTITVDTSASTAYMELKSLRSEDTAVYYCARSVGPMDYWGQGTLVTVSS
VL: DIQMTQSPSSLSASVGDRVTITCRTSENVYSYLAWYQQKPGKAPKLLIYFAKTLAEGVPSRFSGSGSGTQFTLTISSLQPEDSASYYCQHHSDNPWTFGGGTELEIKR
notes: Humanized IgG1/kappa derived from G28.1; also called aCD37 Ab1
For B8, the binding result in [9] is “binds”.

B9: anti-hCD37 Ab1.N12 (antibody, human IgG1, kappa, V domains shown)
VH: QVQLVQSGAEVKKPGASVKVSCKASGYTFTGYNLNWVRQNNGQRLEWMGNIDPYYGGTTYNRKFQGRVTITVDTSASTAYMELKSLRSEDTAVYYCARSVGPMDYWGQGTLVTVSS
VL: DIQMTQSPSSLSASVGDRVTITCRTSENVYSYLAWYQQKPGKAPKLLIYFAKSLAEGVPSRFSGSGSGTQFTLTISSLQPEDSASYYCQHHSENPWTFGGGTELEIKR
notes: anti-hCD37 Ab1 with VH M34L + K64Q and VL T53S + D93E; also called anti-CD37 Ab1.N12
For the molecule B9, in [10], the binding result was “binds”.

B10: anti-hCD37 Ab1.N19 (antibody, human IgG1, kappa, name in Kabat numbering, V domains shown)
VH: QVQLVQSGAEVKKPGASVKVSCKASGYTFTGYNLNWVRQNNGQRLEWMGNIDPYYGGTTYNRKFQGRVTITVDTSASTAYMELKSLRSEDTAVYYCARSVGPLDYWGQGTLVTVSS
VL: DIQMTQSPSSLSASVGDRVTITCRTSENVYNYLAWYQQKPGKAPKLLIYFAKSLAEGVPSRFSGSGSGTQFTLTISSLQPEDSASYYCQHHGDNPWTFGGGTELEIKR
notes: IgG1 variant of anti-hCD37 Ab1
Take B10: the binding result in test [10] is on record as “binds”.

B11: anti-hCD37 Ab1.N18 (antibody, human IgG1, kappa, name in Kabat numbering, V domains shown)
VH: QVQLVQSGAEVKKPGASVKVSCKASGYTFTGYNLNWVRQNNGQRLEWMGNIDPYYGGTTYNRKFQGRVTITVDTSASTAYMELKSLRSEDTAVYYCARSVGPMDYWGQGTLVTVSS
VL: DIQMTQSPSSLSASVGDRVTITCRTSENVYNYLAWYQQKPGKAPKLLIYFAKTIAEGVPSRFSGSGSGTQFTLTISSLQPEDSASYYCQHHSENPWTFGGGTELEIKR
notes: as for B10
On to B11, for which the binding result in [11] was “binds”.
